We go through 1 molecule from EP4663659A1 (Merck Patent GmbH, dated 2025).

This experiment addresses T1, human MUC-1 on cells (human, UniProt P15941 24-1255).
T1 construct: Endogenous on human tumour cell lines and normal kidney and lung cells; also called hMUC-1; mucin 1
The experiment can be described thus: flow cytometry with PE-labeled antibody on tumor cell lines, MESF by PE Quantum Beads. For orientation: A flow cytometer gives signals particle by particle.

T1 sequence (P15941 24-1255 limits assumed): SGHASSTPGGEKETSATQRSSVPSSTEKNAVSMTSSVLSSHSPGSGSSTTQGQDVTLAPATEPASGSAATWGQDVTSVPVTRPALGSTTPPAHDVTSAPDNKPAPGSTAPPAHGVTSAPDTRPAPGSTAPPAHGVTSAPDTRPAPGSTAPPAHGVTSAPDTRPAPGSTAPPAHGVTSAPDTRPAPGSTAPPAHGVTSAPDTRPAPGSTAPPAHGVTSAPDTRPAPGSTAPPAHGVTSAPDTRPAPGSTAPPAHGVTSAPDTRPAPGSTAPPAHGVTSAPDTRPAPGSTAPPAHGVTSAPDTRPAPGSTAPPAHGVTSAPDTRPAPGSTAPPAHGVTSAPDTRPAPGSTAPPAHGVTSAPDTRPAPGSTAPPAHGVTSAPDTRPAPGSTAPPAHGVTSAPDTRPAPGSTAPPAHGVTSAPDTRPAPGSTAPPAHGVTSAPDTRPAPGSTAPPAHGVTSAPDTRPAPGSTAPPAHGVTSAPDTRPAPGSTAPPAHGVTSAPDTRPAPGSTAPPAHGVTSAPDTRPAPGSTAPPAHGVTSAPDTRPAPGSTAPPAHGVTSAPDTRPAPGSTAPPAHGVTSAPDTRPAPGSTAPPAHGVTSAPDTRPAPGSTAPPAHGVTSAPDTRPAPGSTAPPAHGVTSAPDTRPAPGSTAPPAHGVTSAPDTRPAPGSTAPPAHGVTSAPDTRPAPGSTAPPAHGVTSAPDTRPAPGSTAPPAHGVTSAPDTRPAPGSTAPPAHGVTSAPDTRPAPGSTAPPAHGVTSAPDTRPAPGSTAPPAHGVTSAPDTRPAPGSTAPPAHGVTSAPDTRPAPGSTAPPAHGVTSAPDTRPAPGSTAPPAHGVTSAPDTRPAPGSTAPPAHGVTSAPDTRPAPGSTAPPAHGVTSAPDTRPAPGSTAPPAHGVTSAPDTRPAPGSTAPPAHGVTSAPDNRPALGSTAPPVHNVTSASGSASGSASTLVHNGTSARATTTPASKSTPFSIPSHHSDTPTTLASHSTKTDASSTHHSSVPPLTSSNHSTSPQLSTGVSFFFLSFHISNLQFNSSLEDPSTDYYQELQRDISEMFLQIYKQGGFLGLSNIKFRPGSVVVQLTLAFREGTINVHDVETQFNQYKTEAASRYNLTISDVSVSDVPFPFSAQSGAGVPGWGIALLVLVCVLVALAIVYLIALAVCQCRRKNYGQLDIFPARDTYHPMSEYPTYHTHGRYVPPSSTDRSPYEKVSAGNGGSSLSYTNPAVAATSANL

B1: anti-MUC-1 (D11-28) antibody, PE-labeled (antibody, human IgG1, lambda, L234A L235A, V domains shown)
VH: EVQLVQSGAEVKKPGASVKVSCKASGYSFTGHYMHWVRQAPGQGLEWMGWIDPVTGGTKYAQKFQGWVTMTRDTSISTAYMELSRLRSDDTAVYYCAREVTGDRGQFDKWGQGTLVTVSS
VL: SYVLTQPPSVSVAPGKTARITCGGNNIGSKSVHWYQQKPGQAPVLVIYYGSNRPSGIPERFSGSNSGNTATLTISRVEAGDEADYYCQVWDSSSDWVFGGGTKLTVLG
modifications: PE (phycoerythrin) label, site not stated
notes: also called anti-MUC-1 antibody clone (D11-28); anti-MUC-1 PE antibody
As for B1, the binding result was “binds”.
